A short description of one series: in vivo. Conditions: female, C57BL/6, mouse, iv, 3.7 MBq, total radioactivity. The protocol:
C57BL/6 female mice were obtained from Shanghai Lingchang Biotechnology Co., LTD, Shanghai, China. The animals were kept in the Animal Experiment Center of Shanghai Changhai Hospital of SPF level. Then, 1 × 10^6 PANC02 cells in 0.1 mL mixture of PBS and Matrigel at a 1:1 ratio was inoculated subcutaneous into the right trunk of the mice. When the tumor reached an average volume of 300–500 mm^3, in vivo experiments of tracer metabolism were performed.
All imaging acquisition was performed on a clinical PET-CT scanner (Biograph64, Siemens Healthcare, Erlangen, Germany). Before imaging, the model mice were injected with 50 μL sodium pentobarbital (3%) into the abdominal cavity for anesthesia. […] For quantification of tracer uptake, 3D regions of interest (ROI) were drawn on the muscle, liver, and tumor.

For another series, the system named is PANC02 cells. Nature of the series: Cellular uptake assay, PANC02 cells. It is filed as cell-based, murine. Conditions: 1.5 kBq tracer, 45 min incubation with constant shaking, γ-counter, mean ± SD. The protocol:
(§1) Murine pancreatic cancer cell PANC02 and human glioma cancer cell U87MG were obtained from Tongpai Biotechnology Co., LTD. The cells were cultured in DMEM medium containing 10% fetal bovine serum (FBS) and 1% penicillin–streptomycin. The cells grew adherent when cultured at 37 °C, 5% CO2, and appropriate humidity.
(§2) PANC02 and U87MG cells incubated to a confluence of approximately 80% in a 10 cm Petri dish were digested, centrifugated, and separated to several EP tubes. Then, the cells were incubated with 1.5 kBq ^68Ga-WL12 in a state of constant shaking for 5, 15, 30, and 45 min. At each time point, precipitation of cells was collected after centrifugating and washing by PBS. The radioactivity for each sample was measured by a γ-counter and calculated as the percentage.

A short description of series [1]: In vitro stability in saline (ITLC). It counts as physicochemical. Conditions: 37 °C, read-out ITLC (silica gel paper, 50% acetonitrile), mean ± SD.
A short description of another series: in vitro. As to conditions: 10% FBS (serum). On the procedure:
The radiochemical purity of [^68Ga]-WL12 was determined by thin-layer chromatography (ITLC) using glass microfiber chromatography paper impregnated with a silica gel as the stationary phase and acetonitrile (50%) as the mobile phase. For the evaluation of in vitro stability, [^68Ga]-WL12 was incubated at 37 °C with saline and 10% serum, respectively, for 60 min. Aliquots (3.7 kBq) of each radiolabeled ligand were taken and analyzed by ITLC.

A further series relates to U87MG cells. Nature of the series: Cellular uptake assay, U87MG cells. It is filed as cell-based, human. As to conditions: 1.5 kBq tracer, 45 min incubation with constant shaking, γ-counter, mean ± SD. The protocol:
as §1, §2

The structures appear in SMILES notation.

In the case of `N=C(N)NCCC[C@@H]1NC(=O)[C@H](CCCCNC(=O)CC[C@H](NC(=O)CN2CCN(CC(=O)O)CCN(CC(=O)O)CCN(CC(=O)O)CC2)C(=O)NCCCC[C@@H]2NC(=O)[C@@H](Cc3ccccc3)NC(=O)[C@H](CC(=O)O)NC(=O)CNC(=O)[C@H](CCCNC(=N)N)NC2=O)NC(=O)[C@@H](Cc2ccccc2)NC(=O)[C@H](CC(=O)O)NC(=O)CNC1=O` [^68Ga-RGD, metal not drawn, reference compound], in “in vivo”, the SUV at 1 h is below 0.05 SUV.
Broadly, the amount remaining is the share of the starting amount still present when the sample was taken. High values mean greater stability, low ones a greater loss. On to `CCCC[C@H]1C(=O)N(C)[C@@H](CCCC)C(=O)N[C@@H](CCCNC(=O)CCc2ccc(O)c(CN(CCN(CC(=O)O)Cc3cc(CCC(=O)O)ccc3O)CC(=O)O)c2)C(=O)N[C@H](C(=O)NCC(N)=O)CSCC(=O)N[C@@H](Cc2ccc(O)cc2)C(=O)N(C)[C@@H](C)C(=O)N[C@@H](CC(N)=O)C(=O)N2CCC[C@H]2C(=O)N[C@@H](Cc2c[nH]cn2)C(=O)N[C@@H](CC(C)C)C(=O)N2C[C@H](O)C[C@H]2C(=O)N[C@@H](Cc2c[nH]c3ccccc23)C(=O)N[C@@H](CO)C(=O)N[C@@H](Cc2cn(C)c3ccccc23)C(=O)N1C` [^68Ga-HBED-CC-WL12, metal not drawn], for which, in the series on PANC02 cells, the “specific binding rate in PANC02” value is reported as 31.2 ± 9.4%. Also, the “RCP after 60 min incubation in saline” value in series [1] was determined as 92.5 ± 1.5%. In the series “in vitro”, this compound showed an amount remaining at 1 h of 56.5 ± 2.3%. The “specific binding rate in U87MG” value in the series with U87MG cells is on record as 37.7 ± 2.4%. In addition, in “in vivo”, the SUV at 20 min amounted to 0.37 SUV and the SUV at 1.5 h turned out to be 0.38 ± 0.02 SUV. Moreover, the tissue to tissue ratio at 1.5 h in “in vivo” (tumor-to-liver (T/L) ratio based on SUVmax) is 0.45 ± 0.03. In addition, the tissue to tissue ratio at 1.5 h in “in vivo” (tumor-to-muscle (T/M) ratio based on SUVmax) is above 2.

For the origin of these results see paper PMC9865957, “^68Ga-HBED-CC-WL-12 PET in Diagnosing and Differentiating Pancreatic Cancers in Murine Models” (Pharmaceuticals, 2023).
